From paper PMC12429950, “A chimeric RNA consisting of siRNA and aptamer for inhibiting dengue virus replication”

B1: DENV-Apt (XNA)
RNA: GGGUCUUGUUUCUUCUCUGUGUGUAAUUUGUUUUACUGGGGGGUUAACCUAACAAGUGCACACUCGUCACACACUCACAUC
modifications: 2'-fluoro C and U

Key:
[1] = target: T1, DENV-1 VLP (envelope protein) (Dengue virus type 1, UniProt P17763 281-775); test: SPR; conditions: protein: commercial; predicted stem-loop
[2] = target: T1, DENV-1 VLP (envelope protein); test: SPR; response lower than DENV-Apt_41; conditions: protein: commercial; predicted stem-loop

T1 sequence (P17763 281-775): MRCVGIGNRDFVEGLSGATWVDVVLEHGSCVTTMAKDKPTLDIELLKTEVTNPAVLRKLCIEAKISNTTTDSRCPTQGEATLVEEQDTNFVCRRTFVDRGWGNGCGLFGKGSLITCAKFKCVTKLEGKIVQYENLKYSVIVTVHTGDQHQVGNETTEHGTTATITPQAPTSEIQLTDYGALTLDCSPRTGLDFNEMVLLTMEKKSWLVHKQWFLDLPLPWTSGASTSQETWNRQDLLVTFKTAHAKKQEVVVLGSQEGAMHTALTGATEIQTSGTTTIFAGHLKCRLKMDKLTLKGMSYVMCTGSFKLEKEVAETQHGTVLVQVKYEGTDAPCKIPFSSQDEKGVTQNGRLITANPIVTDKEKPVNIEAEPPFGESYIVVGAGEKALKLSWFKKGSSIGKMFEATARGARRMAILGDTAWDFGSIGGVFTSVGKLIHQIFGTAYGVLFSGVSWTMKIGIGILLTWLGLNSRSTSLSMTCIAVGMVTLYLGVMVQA

| Binder | binding result [1] | binding result [2] |
| --- | --- | --- |
| GGGUAAUUUGUUUUACUGGGGGGUUAACCUAACAAGUGCCC (XNA, 2'-fluoro C and U) [DENV-Apt_41] | binds | – |
| B1 | – | binds |
